These results are taken from article PMC12329595, “Engineered bacteriophytochrome heterodimers for research and applications” (The Journal of Biological Chemistry, 2025).

To fix the notation:
B1: DrBphPRR (full-length DrBphP E148R/E306R) (natural protein)
chain: MSRDPLPFFPPLYLGGPEITTENCEREPIHIPGSIQPHGALLTADGHSGEVLQMSLNAATFLGQEPTVLRGQTLAALLPEQWPALQAALPPGCPDALQYRATLDWPAAGHLSLTVHRVGELLILEFEPTEAWDSTGPHALRNAMFALRSAPNLRALAEVATQTVRELTGFDRVMLYKFAPDATGEVIAEARREGLHAFLGHRFPASDIPAQARALYTRHLLRLTADTRAAAVPLDPVLNPQTNAPTPLGGAVLRATSPMHMQYLRNMGVGSSLSVSVVVGGQLWGLIACHHQTPYVLPPDLRTTLRYLGRLLSLQVQVKEAADVAAFRQSLREHHARVALAAAHSLSPHDTLSDPALDLLGLMRAGGLILRFEGRWQTLGEVPPAPAVDALLAWLETQPGALVQTDALGQLWPAGADLAPSAAGLLAISVGEGWSECLVWLRPELRLEVAWGGATPDQAKDDLGPRHSFDTYLEEKRGYAEPWHPGEIEEAQDLRDTLTGALGERLSVIRDLNRALTQSNAEWRQYGFVISHHMQEPVRLISQFAELLTRQPRAQDGSPDSPQTERITGFLLRETSRLRSLTQDLHTYTALLSAPPPVRRPTPLGRVVDDVLQDLEPRIADTGASIEVAPELPVIAADAGLLRDLLLHLIGNALTFGGPEPRIAVRTERQGAGWSIAVSDQGAGIAPEYQERIFLLFQRLGSLDEALGNGLGLPLCRKIAELHGGTLTVESAPGEGSTFRCWLPDAGPLPGAADA
modifications: biliverdin IXα covalently linked to a conserved cysteine (holoprotein)
notes: Deinococcus radiodurans strain R1 bacteriophytochrome DrBphP, full length; source: E. coli BL21 (DE3), purified (Ni-NTA, SEC)

In data set [1] the target is DrPSMRE (DrPSM E306R/R310E) (Deinococcus radiodurans strain R1). Put plainly: ITC; MicroCal PEAQ-ITC, 25 °C, darkness (Pr state), 30 mM Tris/HCl, 150 mM NaCl, pH 8.0; cell 9 to 18 μM, syringe 100 to 280 μM; single-site fit; individual components injected into buffer and vice versa as background.
Data set [2] shares this target. Described as above. This is another data set of the same source.
The target in data set [3] is DrPSMRR (DrPSM E148R/E306R) (Deinococcus radiodurans strain R1). The data set is described as above.
The target is the same in data set [4]. The data set is described as above. This is another data set of the same source.
Data set [5] concerns the molecule itself. Put plainly: SEC; HPLC, bioZen 1.8 μm SEC-3 column, 30 mM Tris/HCl, 150 mM NaCl, pH 8.0 with 10% acetonitrile, 25 °C; full-length DrBphP and DrF1 variants and mixtures.
Data set [6] deals with B1. Described as above. Particulars: both partners purified.

Read-outs that look alike come from different tables or passages of the source.

For the molecule “DrPSMER (DrPSM R141E/E148R) (domain or fragment)”, in data set [1], the Kd amounted to 12 nM and the stoichiometry N worked out at 1. The molecule also came in with a Kd in data set [2] of 800 nM.
For the molecule “DrPSMEE (DrPSM R141E/R310E) (domain or fragment)”, in data set [3], the Kd came to 800 nM and the stoichiometry N was determined as 1. Also, the Kd in data set [4] is 12 nM.
Take B1: the binding result in data set [5] is recorded as “binds”.

B2: Full-length phytochrome from Deinococcus radiodurans strain R1 (DrBphP), wild type (natural protein)
chain: MSRDPLPFFPPLYLGGPEITTENCEREPIHIPGSIQPHGALLTADGHSGEVLQMSLNAATFLGQEPTVLRGQTLAALLPEQWPALQAALPPGCPDALQYRATLDWPAAGHLSLTVHRVGELLILEFEPTEAWDSTGPHALRNAMFALESAPNLRALAEVATQTVRELTGFDRVMLYKFAPDATGEVIAEARREGLHAFLGHRFPASDIPAQARALYTRHLLRLTADTRAAAVPLDPVLNPQTNAPTPLGGAVLRATSPMHMQYLRNMGVGSSLSVSVVVGGQLWGLIACHHQTPYVLPPDLRTTLEYLGRLLSLQVQVKEAADVAAFRQSLREHHARVALAAAHSLSPHDTLSDPALDLLGLMRAGGLILRFEGRWQTLGEVPPAPAVDALLAWLETQPGALVQTDALGQLWPAGADLAPSAAGLLAISVGEGWSECLVWLRPELRLEVAWGGATPDQAKDDLGPRHSFDTYLEEKRGYAEPWHPGEIEEAQDLRDTLTGALGERLSVIRDLNRALTQSNAEWRQYGFVISHHMQEPVRLISQFAELLTRQPRAQDGSPDSPQTERITGFLLRETSRLRSLTQDLHTYTALLSAPPPVRRPTPLGRVVDDVLQDLEPRIADTGASIEVAPELPVIAADAGLLRDLLLHLIGNALTFGGPEPRIAVRTERQGAGWSIAVSDQGAGIAPEYQERIFLLFQRLGSLDEALGNGLGLPLCRKIAELHGGTLTVESAPGEGSTFRCWLPDAGPLPGAADA
modifications: biliverdin IXα covalently linked to a conserved cysteine (holoprotein)
notes: Deinococcus radiodurans strain R1 bacteriophytochrome DrBphP, full length (PSM and histidine kinase module); also called DrBphPWT; source: E. coli BL21 (DE3), purified (Ni-NTA, SEC)
Consider B2, for which the binding result in data set [5] was “binds”.

B3: DrBphPRE (full-length DrBphP E306R/R310E) (natural protein)
chain: MSRDPLPFFPPLYLGGPEITTENCEREPIHIPGSIQPHGALLTADGHSGEVLQMSLNAATFLGQEPTVLRGQTLAALLPEQWPALQAALPPGCPDALQYRATLDWPAAGHLSLTVHRVGELLILEFEPTEAWDSTGPHALRNAMFALESAPNLRALAEVATQTVRELTGFDRVMLYKFAPDATGEVIAEARREGLHAFLGHRFPASDIPAQARALYTRHLLRLTADTRAAAVPLDPVLNPQTNAPTPLGGAVLRATSPMHMQYLRNMGVGSSLSVSVVVGGQLWGLIACHHQTPYVLPPDLRTTLRYLGELLSLQVQVKEAADVAAFRQSLREHHARVALAAAHSLSPHDTLSDPALDLLGLMRAGGLILRFEGRWQTLGEVPPAPAVDALLAWLETQPGALVQTDALGQLWPAGADLAPSAAGLLAISVGEGWSECLVWLRPELRLEVAWGGATPDQAKDDLGPRHSFDTYLEEKRGYAEPWHPGEIEEAQDLRDTLTGALGERLSVIRDLNRALTQSNAEWRQYGFVISHHMQEPVRLISQFAELLTRQPRAQDGSPDSPQTERITGFLLRETSRLRSLTQDLHTYTALLSAPPPVRRPTPLGRVVDDVLQDLEPRIADTGASIEVAPELPVIAADAGLLRDLLLHLIGNALTFGGPEPRIAVRTERQGAGWSIAVSDQGAGIAPEYQERIFLLFQRLGSLDEALGNGLGLPLCRKIAELHGGTLTVESAPGEGSTFRCWLPDAGPLPGAADA
modifications: biliverdin IXα covalently linked to a conserved cysteine (holoprotein)
notes: as for B1
For B3, the binding result in data set [5] is given as “binds”.

B4: DrBphPEE (full-length DrBphP R141E/R310E) (natural protein)
chain: MSRDPLPFFPPLYLGGPEITTENCEREPIHIPGSIQPHGALLTADGHSGEVLQMSLNAATFLGQEPTVLRGQTLAALLPEQWPALQAALPPGCPDALQYRATLDWPAAGHLSLTVHRVGELLILEFEPTEAWDSTGPHALENAMFALESAPNLRALAEVATQTVRELTGFDRVMLYKFAPDATGEVIAEARREGLHAFLGHRFPASDIPAQARALYTRHLLRLTADTRAAAVPLDPVLNPQTNAPTPLGGAVLRATSPMHMQYLRNMGVGSSLSVSVVVGGQLWGLIACHHQTPYVLPPDLRTTLEYLGELLSLQVQVKEAADVAAFRQSLREHHARVALAAAHSLSPHDTLSDPALDLLGLMRAGGLILRFEGRWQTLGEVPPAPAVDALLAWLETQPGALVQTDALGQLWPAGADLAPSAAGLLAISVGEGWSECLVWLRPELRLEVAWGGATPDQAKDDLGPRHSFDTYLEEKRGYAEPWHPGEIEEAQDLRDTLTGALGERLSVIRDLNRALTQSNAEWRQYGFVISHHMQEPVRLISQFAELLTRQPRAQDGSPDSPQTERITGFLLRETSRLRSLTQDLHTYTALLSAPPPVRRPTPLGRVVDDVLQDLEPRIADTGASIEVAPELPVIAADAGLLRDLLLHLIGNALTFGGPEPRIAVRTERQGAGWSIAVSDQGAGIAPEYQERIFLLFQRLGSLDEALGNGLGLPLCRKIAELHGGTLTVESAPGEGSTFRCWLPDAGPLPGAADA
modifications: biliverdin IXα covalently linked to a conserved cysteine (holoprotein)
notes: as for B1
As to B4, the binding result in data set [6] is reported as “binds”.
